Assay results taken from publication PMC7585734, “Site-specific epitope insertion into recombinant proteins using the MAP tag system” (Journal of Biochemistry, 2020).
Residue numbers refer to the chain shown, from its start. Names may count otherwise. Blank lines part the entries; values can stand above or below the binder they belong to.

Columns and labels:
[1] = biological target: T1, MAP tag peptide (14-residue) (Mus musculus); experiment: pull-down; purified Fv-clasp samples mixed with MAP14 peptide-conjugated Sepharose, 1 h at room temperature; washed three times with TBS (20 mM Tris pH 7.5, 150 mM NaCl); 15% SDS-PAGE, Coomassie; settings: both partners purified
T1 construct: 14-residue MAP tag derived from mouse podoplanin; also called MAP14 peptide; MAP peptide; source: synthetic peptide; also conjugated to Sepharose
T1 chain: GDGMVPPGIEDKIT

[2] = biological target: T2, Fn10-nMAP14 (Mus musculus (MAP tag), chimera); experiment: pull-down; PMab-1 immobilised on Sepharose; culture supernatants of transfected Expi293F cells; washed three times with TBS; 12.5% non-reducing SDS-PAGE, Coomassie; settings: one partner purified
T2 construct: original 14-residue MAP tag derived from mouse podoplanin, at the N-terminus; tenth fibronectin type III domain (Fn10) of human fibronectin, residues 1417-1509; disulphide-linked dimer via the Fc; also called N-terminally MAP-tagged Fn10-Fc; source: Expi293F, transiently transfected, culture supernatant
T2 chain: GDGMVPPGIEDKIT

[3] = biological target: T3, Fn10-iFG-G (mouse podoplanin MAP8 tag (carried in …, chimera)); experiment: as above; settings: one partner purified
T3 construct: Fn10 of human fibronectin up to Gly1494 of the FG loop; extra Gly residue(s) before the tag; MAP8 tag, derived from mouse podoplanin; extra Gly residue(s) after the tag; Fn10 of human fibronectin from Ser1496; As Fn10-iFG with the inserted MAP8 flanked by extra Gly residues at both ends; source: Expi293F, transiently transfected, culture supernatant
T3 chain: GDGMVPPG

[4] = biological target: T4, Fn10-nMAP8 (Mus musculus (MAP tag), chimera); experiment: as above; settings: one partner purified
T4 construct: MAP8 tag, the N-terminal 8 residues of the MAP tag derived from mouse podoplanin, at the N-terminus; tenth fibronectin type III domain (Fn10) of human fibronectin, residues 1417-1509; disulphide-linked dimer via the Fc; also called N-terminally MAP-tagged Fn10-Fc; source: Expi293F, transiently transfected, culture supernatant
T4 chain: GDGMVPPG

binding result [1]: binds
B1: PMab-1(QQ) Fv-clasp (other, rat | human)
VH: QIQLQQSGTVLVKPASSVKISCKASGYSFTSHYMHWIRQQPGQGLEWIGWISPEQGNTKYNQKFDGKATLTADKSSSIAYMQLSSLTSEDSAVYFCVSWEDWSAYWGQGTLVTVCS
VL: DIVLTQSPALTVSLGQRATISCKTNQNVDYYGNSYVHWYQQKPGQKPKLLIYLASNLASGIPARFSGRGSGTDFTLTIDPVEAADTATYYCQQSRDLPNTFGAGTKLELK
notes: VH domain of rat anti-MAP monoclonal antibody PMab-1; SARAH domain of human Mst1 (anti-parallel coiled coil of the Fv-clasp format); VL domain (kappa) of rat anti-MAP monoclonal antibody PMab-1; SARAH domain of human Mst1 with S37C; Fv-clasp(v2) format, non-tagged version; also called PMab-1(QQ) Fv-clasp mutant; PMab-1VH(S112C)-SARAH with N43Q and N54Q + PMab-1VL-SARAH(S37C)

binding result [2]: binds | binding result [3]: binds | binding result [4]: binds
B2: PMab-1, rat anti-MAP monoclonal antibody (IgG2a, kappa) (antibody, V domains shown)
VH: B1 VH with Q43N, Q55N, C115S
VL: B1 VL
notes: VH of PMab-1; as the VH of m1 (PDB 6lz4, VH-SARAH chain) but with Asn43, Asn54 and Ser112 of the parent antibody; constant region of rat IgG2a heavy chain; VL of PMab-1; as the VL of m1 (PDB 6lz4, VL-SARAH chain); constant region of rat kappa light chain; Whole antibody; immobilised on Sepharose for pull-downs, used at 1.0 ug/ml in flow cytometry; copies: 2 + 2

binding result [1]: binds
B3: PMab-1 Fv-clasp (other, rat | human)
VH: B1 VH with Q43N, Q55N
VL: B1 VL
notes: VH domain of PMab-1 with S112C; as the VH of m1 (PDB 6lz4, VH-SARAH chain) but with Asn at 43 and 54 instead of the Gln of the entry; C112 is already in the entry; SARAH domain of human Mst1; VL domain (kappa) of PMab-1; as the VL of m1 (PDB 6lz4, VL-SARAH chain); SARAH domain of human Mst1 with S37C; as in the VL-SARAH chain of m1 (PDB 6lz4), which already holds the Cys; Parent of m1, without …
